Reference: article PMC5666081, “Solution structure of CXCL13 and heparan sulfate binding show that GAG binding site and cellular signalling rely on distinct domains” (Open Biology, 2017)

Biological target: T1, ΔN-CXCL13 (murine CXCL13 residues 31-109 with the initiating methionine) (murine)
T1 chain: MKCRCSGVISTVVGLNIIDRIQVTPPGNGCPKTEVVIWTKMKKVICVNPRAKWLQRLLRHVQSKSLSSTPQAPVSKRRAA
Test: NMR titration; [15N,1H] correlation spectra at different protein concentrations; monomer and dimer signals in slow exchange; KD of dimer to monomers from integrated signals of monomer and dimer; T1/T2 relaxation; 20 mM phosphate, 100 mM NaCl, pH 6, 298 K; addition of HS tetrasaccharide dp4 (50 µM on 50 µM ΔN-CXCL13) increases the dimer signals
Conditions: both partners purified

Kd: 300 ± 100 µM | stoichiometry N: 2
B1: ΔN-CXCL13 (murine CXCL13 residues 31-109 with the initiating methionine) (domain or fragment)
chain: MKCRCSGVISTVVGLNIIDRIQVTPPGNGCPKTEVVIWTKMKKVICVNPRAKWLQRLLRHVQSKSLSSTPQAPVSKRRAA
modifications: initiating Met kept (piece 1); paper residue numbers are mature, offset +21 to the precursor; two disulfides expected from the chemokine fold / initiating Met kept (piece 1); paper residue numbers …
